Results taken from the DeepSol protein solubility set.

Assay: soluble on expression in E. coli; label from the status in PepcDB or PDB records

Sequence | soluble on expression in E. coli
MGHHHHHHSHMAAPGLRLGAGRLFEMPAVLERLSRYNSTSQAFAEVLRLPKQQLRKLLYPLQEVERFLAPYGRQDLHLRIFDPSPEDIARADNIFTATERNRIDYVSSAVRIDHAPDLPRPELEENIFISG | not soluble
MATVAELKAVLKDTLEKKGVLGHLKARIRAEVFNALDDDREPRPSLSHENLLINELIREYLEFNKYKYTASVLIAESGQPVVPLDRQFLIHELNAFEESKDNTIPLLYGILAHFLRGTKDGIQNAFLKGPSLQPSDPSLGRQPSRRKPMDDHLRKEEQKSTNIEDLHVSQAVNR | soluble
MEQTTIDGISLSLAGPVELTLRWVGQDELLKQLLAAWMVIDEKDIPFNPRLIGKPGVGKTTLAYAAARRLDRPVYLFQATMDTRPEDLIITPVIGPDGKIQYAASALVSAMLKGGVLILDEGNRMSEKAWASLAPLLDDRRYVESIITGLRVPAHRDFRIVVTMNEDSSTFEVPEYIHSRLQPQIFIDFPEADEELLILKENLPFAPSRILAYVVDFLQRAHAADELYSVRDGINIARYALKMMAATERDSVELLPLAVERVLGDEALRYLKLEHHHHHH | not soluble
TLTDTMNDLAVRMAESFQAEEVGFFHIDHFENLTLLPGSTAFFKEAKPSDFYNELKEKLYEGEKGVFIGNGQSVFGKAGYGSLMAAPMIQNDRLLGFAVLLKQELYAFTFEMYKLFQALIHHATLAVTNSMLRDRLEHLVKTDQL | not soluble
MSPIPLPVTDTDDAWRARIAAHRADKDEFLATHDQSPIPPADRGAFDGLRYFDIDASFRVAARYQPARDPEAVELETTRGPPAEYTRAAVLGFDLGDSHHTLTAFRVEGESSLFVPFTDETTDDGRTYEHGRYMDVDPAGADGGDEVALDFNLAYNPFCAYGGSFSCALPPADNHVPAAITAGERVDADLEHHHHHH | soluble
HLPKPTLWAEPGSVITQGSPVTLRCQGGQETQEYRLYREKKTAPWITRIPQELVKKGQFPIPSITWEHAGRYRCYYGSDTAGRSESSDPLELVVTGAYIKPTLSAQPSPVVNSGGNVTLQCDSQVAFDGFILCKEGEDEHPQCLNSQPHARGSSRAIFSVGPVSPSRRWWYRCYAYDSNSPYEWSLPSDLLELLVLG | soluble
MNPNHNEGLLELYTQAISLEALKDAEQFLENSLLGKDAQVERLLAQVLIEEQQIETNRKKIAQLRIEKEELEFDCANSDLKSLEQMQAERDELQRKCQPGQHTKSNHKSSEQLLRMKKETDALRAYMKKISQFED | not soluble
MITQHLIPDFIAKMTGSTEVQKSAGMKKSSSSQFKDTLDLAVEKSYAWQSGTKSYEYAMDIKDRPYQRLQNKNILDSAETKERRPDRTKPFNKASNQITSRASDKAERTASPEEENIEGENDRKLKGKAMEKALAEVLGISVEELEKLMAQLGINFENADGETGIQEAADKISAYLGLNQDEKMALAEMMSLVQKQVEQAFKDVQSAYDAARYDMKDENEAYGVELFHAETETAVEDTSALRNDLDVSKVSQEVKNKLDEETDGFLKQIAAKVVEVVQKDESTAGLKTVSVNGENIEEIGLKTDVEDIGNVREAKYSSDEKDSADNSGNAGSETSSMASRGVEAESAAKNSNNIQFEAVSNLTVQRATGQAEPDKTRNIIPVTNKEIVEQVVEKAKVVLSGDKSEMVIDLKPEHLGKLELKIVTERGMVVAKFVAENEQVKAALESNMNMLKESLEKQGFLVEGFSVTVGDNKRRENSRDKTNQGTANQRISGEKLQVSDMTGVERMQRIHENIDPYSYGSSSIDLTA | soluble
MTGTGILARPERNHYFSLALAFCSWVRNGYGVFRYSDKELLFLASINGQPAVMADLSGNDADVAQKVSLFLTMNEEPPEKWQVVSPLEHPDNWESIITRLSSADLRRCKLTVGNRSKFTLPAVLFLVAASAGTVFWMTQPEPDVVPTPEEIAARARLQFKKPDPPPELPHPWASQPVISDFLKACADLRKPSPVALEGWKLTGGTCTPETFTLIYERQPGGTIEGFLARSKEIFNVIPDFNLKDGARLASVTRPLPSLPRRDEAVPTPSEQLMRVFTWFQKKQLTPAINEIAIPEPLPGNDGEPAPVQKWKEYQFSLSTPVNPDELFPLFQDTGVRLSNIHFELNGGTFSYSSEGHIYASRLEHHHHHH | not soluble
SYMERMDKRALISFWESVEHLKNANKNEIPQLVGEIYQNFFVESKEISVEKSLYKEIQQCLVGNKGIEVFYKIQEDVYETLKDRYYPSFIVSDLYEKLLIKEEEKHASQMISNKDEMGPRDEAGEEAVDDGTNQINEQASFAVNKLRELNEKLEYKRQALNSIQNAPKPDKKIVSKLKDEIILIEKERTDLQLHMARTDWWCENLGMWKASITSGEVTEENGEQLPCYFVMVSLQEVGGVETKNWTVPRRLSEFQNLHRKLSECVPSLKKVQLPSLSKLPFKSIDQKFMEKSKNQLNKFLQEETEEDSDLSDYGDDVDGRKDALAEPCFMLIGEIFELRGMFKWVRRTLIALVQVTFGRTINKQIRDTVSWIFSEQMLVYYINIFRDAFWPNGKLAPPTTIRSKEQSQETKQRAQQKLLENIPDMLQSLVGQQNARHGIIKIFNALQETRANKHLLYALMELLLIELCPELRVHLDQLKAGQV | soluble
MSLQAVTLSVLVVEDTDCERFYITHLLRQFGWLVESRSNGKAALDYLQQNEVHILVSDWRMPEMSGIELCQIVKNNHLPPFVILLTANNQTADIVLGIEAGADDFICKPFLPELLKVRMLAAMRIVQLQHNLSRNEGHHHHHH | not soluble
MTAGFNFNNYAAGFCSATPALRGNEVNMDTLNLGNNESLVCGVFPNQDGTFTAMTYTKSKTFKTEAGARRWLARNTD | soluble
MGCSHSKNKNSKSKSAILKKEHPLERSIHHNRVAHFDETQPTSQSTSVESEELNVKHYSKTLLNDTVEPTHQKTSAHVPEKSIKKQEVKQEVKKHETTTVVHTNVHVPKPTHKLPQASEIPIERMGSDPHTAIAPTYQQKQFATSTYYPMPTIGEKQKSPEKAKPARKVDNTDEKKRKKDQNEKPVINGPNVRHQLTPEDLEYIKRSVQQRNERRAFMMAHRNETDDTLYELEVRMPEKDYTNRMEVGQNYRVC | not soluble
PRKRFIYLERKISPAMASYIKELKIPGIHLRKESKRFYPTGEISAHLIGFTNVDDKGIEGIERMYDDLLTGTGGAKRFRKDAKGRKIEIISVEEPEQAQDITLSID | not soluble
MAHHHHHHMLRHLFRCTAAWAPKRSATREQRLKERVAARMELEAQVKSRVACYPHRSLTRPALRLERHQVNTPLFHSQLLNLNKMATDLQCISFSAPKGHWDAAIVLIKGHPNEANFEVWVNPTVPGYDDRHSIAPMYGMWENCISCGACTAWVIRPQSITCSGLDEYGNEKTEVLDGMRARCLMHELDHLSGRTILDQAQGPEFIVSGIAMGQRDLWPPNFPSAEAYMTSPHQFFDYVKNGPIIPPG | not soluble
MGSDKIHHHHHHMGVEHMRGFSNEIILKRTLTLSDFTLRYHKRGITALQVIKAPSVSNVPVLLSGDNYGYFVMWDLVTKRPITHIEIEGNSHIIAFWWVETTNVLYILSKDSMLRIFELDSSTQLSIDLVRKLSQANKTDHLQWTKIYEMPINTLNFANFIIEAEVKPTKDNKSYRLVCCHTDDSETIDIYQIIEDSTFKLKRPFNNINFPRFLKQQNFLGISKDSKFGIIMRFAKLNDVIFLGYENGFVVGFKITFDEGLQRDIAELVHVSNDHYPNPILDMCVSGDELYSCSTDDFITKYKIPVNLQLETKYLRDDALLIKCPSSLRVSEPSKVHLPLKNIGHIDKVKDDYLVVSSWSGMTIVYNMRTSEVEQTFVKSKNNLVVSDSSMGDLTNGSGSNTESSSKSHNYKVGAMTCLESFDVQSDGLRLGQLRRIKALAKCNWCLIGYEDGTIKLNKI | not soluble
MGFFDRLKAGLAKTRERLLKAIPWGGNLEEVLEELEMALLAADVGLSATEEILQEVRASGRKDLKEAVKEKLVGMLEPDERRATLRKLGFNPQKPKPVEPKGRVVLVVGVNGVGKTTTIAKLGRYYQNLGKKVMFCAGDTFRAAGGTQLSEWGKRLSIPVIQGPEGTDPAALAYDAVQAMKARGYDLLFVDTAGRLHTKHNLMEELKKVKRAIAKADPEEPKEVWLVLDAVTGQNGLEQAKKFHEAVGLTGVIVTKLDGTAKGGVLIPIVRTLKVPIKFVGVGEGPDDLQPFDPEAFVEALLED | soluble
